Data as given in paper PMC5042876.
Numbering of substitutions follows the chain as printed. Names and notes keep the numbering of the source.

Substrate: CC1(C)C[C@H]2C=C(C(=O)O)[C@@H]3COC(=O)[C@]4(CO4)[C@]23C1
Assay: purified protein, by the assay type
Details: 30 °C

B1: wild-type PntM (Streptomyces arenae) (protein)
chain: MTDLPRLPFDNPDIMGIAPQMLALQKEGPIARVGTAGEDAWLVTRYDEVRTLLADRRLRLSNPNPQPSAKSAARAFMVALMAGDDHETEPARHAQMRSLLIPRFSTRRLRLMKTRIEHHVDELLDQLAASAPPVDLHRVLSFRLPTMVVCDLLGVPLADRERFGQWARGTFDQSDNEHSANTFQQVVDYMLELVARKRVEPGDDILSELIAEKDGALSDADIAHLGNAVLLFGYETTIVRIDLGTLLLLRNPVQRAQLAEDPGLAPAAVEEILRLGVGGKGSNALIPRYAHGDITVGETVIRTGDAVMLAIGAANYDDRAFPDGGLFDLTRVRPRSHLAFGHGARHCIGRTLARIELTAVFERLFRRLPDLRLAVPEESLRWQEHRITGGFDEIPVTF
- Km (other: Wild-type, pH 8.0): 36 ± 14 µM
- kcat (other: Wild-type, pH 8.0): 0.03 s⁻¹
- kcat/Km (other: Wild-type, pH 8.0): 833 M⁻¹ s⁻¹

B2: PntM F232L (Streptomyces arenae; F232L) (protein)
chain: B1 chain with F232L
- Km (other: F232L, pH 8.0): 12.0 ± 3 µM
- kcat (other: F232L, pH 8.0): 0.0015 s⁻¹
- kcat/Km (other: F232L, pH 8.0): 125 M⁻¹ s⁻¹

B3: PntM F232A (Streptomyces arenae; F232A) (protein)
chain: B1 chain with F232A
- Km (other: F232A, pH 8.0, n=1): 43 ± 5 µM
- kcat (other: F232A, pH 8.0, n=1): 0.000583 s⁻¹
- kcat/Km (other: F232A, pH 8.0, n=1): 13.7 M⁻¹ s⁻¹

B4: PntM M81C (Streptomyces arenae; M81C) (protein)
chain: B1 chain with M81C
- Km (other: M81C, pH 8.0): 19 ± 3 µM
- kcat (other: M81C, pH 8.0): 0.00153 s⁻¹
- kcat/Km (other: M81C, pH 8.0): 81.7 M⁻¹ s⁻¹

B5: PntM M81A (Streptomyces arenae; M81A) (protein)
chain: B1 chain with M81A
- Km (other: M81A, pH 8.0): 37 ± 6 µM

B6: PntM M77S (Streptomyces arenae; M77S) (protein)
chain: B1 chain with M77S
- Km (other: M77S, pH 8.0): 19 ± 4 µM
- kcat (other: M77S, pH 8.0): 0.000317 s⁻¹
- kcat/Km (other: M77S, pH 8.0): 16.7 M⁻¹ s⁻¹

B7: PntM M81C-BME (Streptomyces arenae; M81C) (protein)
chain: B1 chain with M81C
- Km (other: M81C-BME, pH 8.0): 280 ± 110 µM
- kcat (other: M81C-BME, pH 8.0): 0.00142 s⁻¹
- kcat/Km (other: M81C-BME, pH 8.0): 5 M⁻¹ s⁻¹
